Experimental data reported in paper PMC11132685.

Tests used:
Assay in all cases: SEC-MALS; purified NACHOs; oligomeric state; conditions not given
[1] = target: tetrabrachion-stabilised recombinant N2 NA (NACHO) of A/ALASKA/251/2015 (not stated | influenza A virus (H3N2) A/ALASKA/251/2015)
[2] = target: tetrabrachion-stabilised recombinant N2 NA (NACHO) of A/DAKAR/14/2014 (not stated | influenza A virus (H3N2) A/DAKAR/14/2014)
[3] = target: tetrabrachion-stabilised recombinant N2 NA (NACHO) of A/ESTONIA/91621/2015 (not stated | influenza A virus (H3N2) A/ESTONIA/91621/2015)
[4] = target: tetrabrachion-stabilised recombinant N2 NA (NACHO) of A/GAMBIA/G0071436/2012 (not stated | influenza A virus (H3N2) A/GAMBIA/G0071436/2012)
[5] = target: tetrabrachion-stabilised recombinant N2 NA (NACHO) of A/HANOI/ELI15597/2015 (not stated | influenza A virus (H3N2) A/HANOI/ELI15597/2015)
[6] = target: tetrabrachion-stabilised recombinant N2 NA (NACHO) of A/HEILONGJIANGXIANGYANG/1134/2011 (not stated | influenza A virus (H3N2) A/HEILONGJIANGXIANGYANG/1134/2011)
[7] = target: tetrabrachion-stabilised recombinant N2 NA (NACHO) of A/HELSINKI/823/2013 (not stated | influenza A virus (H3N2) A/HELSINKI/823/2013)
[8] = target: tetrabrachion-stabilised recombinant N2 NA (NACHO) of A/HELSINKI/941/2013 (not stated | influenza A virus (H3N2) A/HELSINKI/941/2013)
[9] = target: tetrabrachion-stabilised recombinant N2 NA (NACHO) of A/HOKKAIDO/10H079/2011 (not stated | influenza A virus (H3N2) A/HOKKAIDO/10H079/2011)
[10] = target: tetrabrachion-stabilised recombinant N2 NA (NACHO) of A/HONGKONG/3089/2017 (not stated | influenza A virus (H3N2) A/HONGKONG/3089/2017)
[11] = target: tetrabrachion-stabilised recombinant N2 NA (NACHO) of A/INDIANA/08/2011 (not stated | influenza A virus (H3N2) A/INDIANA/08/2011)
[12] = target: tetrabrachion-stabilised recombinant N2 NA (NACHO) of A/INDIANA/18/2017 (not stated | influenza A virus (H3N2) A/INDIANA/18/2017)
[13] = target: tetrabrachion-stabilised recombinant N2 NA (NACHO) of A/MINNESOTA/11/2010 (not stated | influenza A virus (H3N2) A/MINNESOTA/11/2010)
[14] = target: tetrabrachion-stabilised recombinant N2 NA (NACHO) of A/NAGANO/2153/2017 (not stated | influenza A virus (H3N2) A/NAGANO/2153/2017)
[15] = target: tetrabrachion-stabilised recombinant N2 NA (NACHO) of A/NEWCALEDONIA/23/2016 (not stated | influenza A virus (H3N2) A/NEWCALEDONIA/23/2016)
[16] = target: tetrabrachion-stabilised recombinant N2 NA (NACHO) of A/OHIO/13/2017 (not stated | influenza A virus (H3N2) A/OHIO/13/2017)
[17] = target: tetrabrachion-stabilised recombinant N2 NA (NACHO) of A/OHIO/62/2012 (not stated | influenza A virus (H3N2) A/OHIO/62/2012)
[18] = target: tetrabrachion-stabilised recombinant N2 NA (NACHO) of A/ONTARIO/RV3236/2016 (not stated | influenza A virus (H3N2) A/ONTARIO/RV3236/2016)
[19] = target: tetrabrachion-stabilised recombinant N2 NA (NACHO) of A/PERTH/16/2009 (not stated | influenza A virus (H3N2) A/PERTH/16/2009)
[20] = target: tetrabrachion-stabilised recombinant N2 NA (NACHO) of A/POLAND/19B/2017 (not stated | influenza A virus (H3N2) A/POLAND/19B/2017)
[21] = target: tetrabrachion-stabilised recombinant N2 NA (NACHO) of A/PORTOALEGRE/LACENRS2376/2014 (not stated | influenza A virus (H3N2) A/PORTOALEGRE/LACENRS2376/2014)
[22] = target: tetrabrachion-stabilised recombinant N2 NA (NACHO) of A/STOCKHOLM/15/2014 (not stated | influenza A virus (H3N2) A/STOCKHOLM/15/2014)
[23] = target: tetrabrachion-stabilised recombinant N2 NA (NACHO) of A/STOCKHOLM/32/2014 (not stated | influenza A virus (H3N2) A/STOCKHOLM/32/2014)
[24] = target: tetrabrachion-stabilised recombinant N2 NA (NACHO) of A/SWEDEN/3/2017 (not stated | influenza A virus (H3N2) A/SWEDEN/3/2017)
[25] = target: tetrabrachion-stabilised recombinant N2 NA (NACHO) of A/SWITZERLAND/9715293/2013 (not stated | influenza A virus (H3N2) A/SWITZERLAND/9715293/2013)
[26] = target: tetrabrachion-stabilised recombinant N2 NA (NACHO) of A/TASMANIA/1018/2015 (not stated | influenza A virus (H3N2) A/TASMANIA/1018/2015)
[27] = target: tetrabrachion-stabilised recombinant N2 NA (NACHO) of A/TEHRAN/996/2012 (not stated | influenza A virus (H3N2) A/TEHRAN/996/2012)
[28] = target: tetrabrachion-stabilised recombinant N2 NA (NACHO) of A/UTAH/11/2011 (not stated | influenza A virus (H3N2) A/UTAH/11/2011)
[29] = target: tetrabrachion-stabilised recombinant N2 NA (NACHO) of A/WISCONSIN/16/2015 (not stated | influenza A virus (H3N2) A/WISCONSIN/16/2015)
[30] = target: tetrabrachion-stabilised recombinant N2 NA (NACHO) of A/XINJ…/1411/2012 (not stated | influenza A virus (H3N2) A/XINJ…/1411/2012)

Work on “tetrabrachion-stabilised recombinant N2 NA (NACHO) of A/ALASKA/251/2015 (enzyme)” yielded a stoichiometry N [1] of 4.

For “tetrabrachion-stabilised recombinant N2 NA (NACHO) of A/DAKAR/14/2014 (enzyme)”, the stoichiometry N [2] was 4.

Work on “tetrabrachion-stabilised recombinant N2 NA (NACHO) of A/ESTONIA/91621/2015 (enzyme)” yielded a stoichiometry N [3] of 4.

For “tetrabrachion-stabilised recombinant N2 NA (NACHO) of A/GAMBIA/G0071436/2012 (enzyme)”, the stoichiometry N [4] was 4.

In the case of “tetrabrachion-stabilised recombinant N2 NA (NACHO) of A/HANOI/ELI15597/2015 (enzyme)”, the stoichiometry N [5] is reported as 4.

“tetrabrachion-stabilised recombinant N2 NA (NACHO) of A/HEILONGJIANGXIANGYANG/1134/2011 (enzyme)” showed a stoichiometry N [6] of 4.

Work on “tetrabrachion-stabilised recombinant N2 NA (NACHO) of A/HELSINKI/823/2013 (enzyme)” yielded a stoichiometry N [7] of 4.

Work on “tetrabrachion-stabilised recombinant N2 NA (NACHO) of A/HELSINKI/941/2013 (enzyme)” yielded a stoichiometry N [8] of 4.

“tetrabrachion-stabilised recombinant N2 NA (NACHO) of A/HOKKAIDO/10H079/2011 (enzyme)” was tested, and the stoichiometry N [9] was 4.

For “tetrabrachion-stabilised recombinant N2 NA (NACHO) of A/HONGKONG/3089/2017 (enzyme)”, the stoichiometry N [10] was 4.

“tetrabrachion-stabilised recombinant N2 NA (NACHO) of A/INDIANA/08/2011 (enzyme)” showed a stoichiometry N [11] of 4.

Work on “tetrabrachion-stabilised recombinant N2 NA (NACHO) of A/INDIANA/18/2017 (enzyme)” yielded a stoichiometry N [12] of 4.

“tetrabrachion-stabilised recombinant N2 NA (NACHO) of A/MINNESOTA/11/2010 (enzyme)” was tested, and the stoichiometry N [13] was 4.

“tetrabrachion-stabilised recombinant N2 NA (NACHO) of A/NAGANO/2153/2017 (enzyme)” was tested, and the stoichiometry N [14] was 4.

“tetrabrachion-stabilised recombinant N2 NA (NACHO) of A/NEWCALEDONIA/23/2016 (enzyme)” showed a stoichiometry N [15] of 4.

“tetrabrachion-stabilised recombinant N2 NA (NACHO) of A/OHIO/13/2017 (enzyme)” was tested, and the stoichiometry N [16] was 4.

“tetrabrachion-stabilised recombinant N2 NA (NACHO) of A/OHIO/62/2012 (enzyme)” showed a stoichiometry N [17] of 4.

“tetrabrachion-stabilised recombinant N2 NA (NACHO) of A/ONTARIO/RV3236/2016 (enzyme)” was tested, and the stoichiometry N [18] was 4.

“tetrabrachion-stabilised recombinant N2 NA (NACHO) of A/PERTH/16/2009 (enzyme)” gave a stoichiometry N [19] of 4.

“tetrabrachion-stabilised recombinant N2 NA (NACHO) of A/POLAND/19B/2017 (enzyme)” showed a stoichiometry N [20] of 4.

“tetrabrachion-stabilised recombinant N2 NA (NACHO) of A/PORTOALEGRE/LACENRS2376/2014 (enzyme)” gave a stoichiometry N [21] of 4.

With “tetrabrachion-stabilised recombinant N2 NA (NACHO) of A/STOCKHOLM/15/2014 (enzyme)” the stoichiometry N [22] was 4.

“tetrabrachion-stabilised recombinant N2 NA (NACHO) of A/STOCKHOLM/32/2014 (enzyme)” gave a stoichiometry N [23] of 4.

Work on “tetrabrachion-stabilised recombinant N2 NA (NACHO) of A/SWEDEN/3/2017 (enzyme)” yielded a stoichiometry N [24] of 4.

In the case of “tetrabrachion-stabilised recombinant N2 NA (NACHO) of A/SWITZERLAND/9715293/2013 (enzyme)”, the stoichiometry N [25] is reported as 4.

Substance “tetrabrachion-stabilised recombinant N2 NA (NACHO) of A/TASMANIA/1018/2015 (enzyme)” has a stoichiometry N [26] of 4.

With “tetrabrachion-stabilised recombinant N2 NA (NACHO) of A/TEHRAN/996/2012 (enzyme)” the stoichiometry N [27] was 4.

For “tetrabrachion-stabilised recombinant N2 NA (NACHO) of A/UTAH/11/2011 (enzyme)”, the stoichiometry N [28] was 4.

“tetrabrachion-stabilised recombinant N2 NA (NACHO) of A/WISCONSIN/16/2015 (enzyme)” was tested, and the stoichiometry N [29] was 4.

“tetrabrachion-stabilised recombinant N2 NA (NACHO) of A/XINJ…/1411/2012 (enzyme)” showed a stoichiometry N [30] of 4.
